Data taken from the DeepSol protein solubility set.

Assay: soluble on expression in E. coli; label from the status in PepcDB or PDB records

Soluble on expression in E. coli, soluble:
MNIQNPVLKGFNPDPSIVRAGDDYYIATSTFEWFPGVQIHHSKDLVHWHLVAHPLSTTEFLDMKGNPDSGGIWAPDLSYADGKFWLIYTDVKVVDGMWKDCHNYLTTAEDIKGPWSKPILLNGAGFDASLFHDPSGKKYLVNMYWDQRVYHHNFYGIALQEYSVAEEKLIGKPEIIYKGTDIAYTEGPHLYYINDMYYLMTAEGGTTYQHSETIARSKTIHGPYEIQPDYPLLSAWKEVHNPLQKCGHASLVETQNGQWYLAHLTGRPLPAPAGFPSREREQHAFCPLGRETAIQKIEWQDGWPVVVGGQQGSLEVEAPDLPQQEWAPTYEERDDFDKDTLNINFQTLRIPFSEHLGSLTARPGFLRLYGRESLQSKFTQAHIARRWQSFNFDAGTSVEFSPNSFQQMAGLTCYYNTENWSSIHVTWNEEKGRIIDLVTADNGTFSMPLAGAEIPIPDEVKTVHFKVSVRGRIYQYAYSFDGETFHTLPIELPSWKLSDDYVRGGGFFTGAFVGINAIDITGTALPADFDYFTYKELD
GEMDERLLQKYRAQVFEWGGCFDKMFEALKSLIYLSEFENSEFDDEERHLLTLCIKHKISDYRTMTSQVLQEQTKQLNNDELVKICSEYVFSLRKDIKAFLQSFEDCVDRLVEKSFFSKFFKLKVKSDISRYKLEFGLCSLEDSKKIHQDAFTLLCEHPDKIEQLPLGFIQNLAYILSEKYGEKKQVFNMLNSLGKILELQIKEQENMDRKAQITVYLQGIKDYIEK
MSLKKALFLILDQYADWEGVYLASALNQREDWSVHTVSLDPIVSSIGGFKTSVDYIIGLEPANFNLLVMIGGDSWSNDNKKLLHFVKTAFQKNIPIAAICGAVDFLAKNGLLNNHSHTGNFVYLWKDYKQYKPISSFVEKQAVRDKNLVTANGTAPIEFTNLILEMIDFDTPENIEKMMYMNRYGFYHFCDKYGNPFVEGHHHHHH
MLFFLIFLGLMATASAKAGRCNEGDQDAHFDSNKFWKCEGGRWIVVTCQINYFYDATTGFCYLSRFPTTRPYPPPFPTRPRPTQGHRCYPGTRIPYPHDHTMFLECSTDGTEYIKRYCQPDAVFVQRENMCVAIQTTYRPTRTWPTTTTTPYYGACKESAGHDGYKPDVYNCKNFYQCASGLWTQRSCGEGTIWDQHKLTCDHNRGQCRPTSPTVQPTYQPTWRPTAYPPNEVKK
ASWSHPQFEKIEGRDTWRYAFEEAMTDVQGVYAQKFKEEIEANSDHEIQLFPYGTLGESADIMEQTQDGILQFVDQSPGFTGSLIPEAQVFFVPYLLPTDQDHLARFFKESKAINDMFKPLYADQGLELLNMFPEGEVAMTTKTPVTTCSDLDEVKFRVMTNPLLVESYKAFGATPTPLPWGEVYGGLQTNVIQGQENPTFFLYSTKIYEVTDYITYAGHNNFTTAVMANKDFYDGLSAEDQQLVQNAALAAYDHTVVYQQQAADTELAKIMEAKPEMQVTVLTDEQRSCFKEAAAEVEAKFIEMTGDSGAAILKQMKADLAATAN
MAHHHHHHVDDDDKMVTDQRWLIDKSALVRLTDSPDMEIWSNRIERGLVHITGVTRLEVGFSAECGEIARREFREPPLSAMPVEYLTPRIEDRALEVQTLLADRGHHRGPSIPDLLIAATAELSGLTVLHVDKDFDAIAALTGQKTERLTHRPPSA
EDGYDMWLRYQPIADQTLLKTYQKQIRHLHVAGDSPTINAAAAELQRGLSGLLNKPIVARDEKLKDYSLVIGTPDNSPLIASLNLGERLQALGAEGYLLEQTRINKRHVVIVAANSDVGVLYGSFHLLRLIQTQHALEKLSLSSAPRLQHRVVNHWDNLNRVVERGYAGLSLWDWGSLPNYLAPRYTDYARINASLGINGTVINNVNADPRVLSDQFLQKIAALADAFRPYGIKMYLSINFNSPRAFGDVDTADPLDPRVQQWWKTRAQKIYSYIPDFGGFLVKADSEGQPGPQGYGRDHAEGANMLAAALKPFGGVVFWRAFVYHPDIEDRFRGAYDEFMPLDGKFADNVILQIKNGPIDFQPREPFSALFAGMSRTNMMMEFQITQEYFGFATHLAYQGPLFEESLKTETHARGEGSTIGNILEGKVFKTRHTGMAGVINPGTDRNWTGHPFVQSSWYAFGRMAWDHQISAATAADEWLRMTFSNQPAFIEPVKQMMLVSREAGVNYRSPLGLTHLYSQGDHYGPAPWTDDLPRADWTAVYYHRASKTGIGFNRTKTGSNALAQYPEPIAKAWGDLNSVPEDLILWFHHLSWDHRMQSGRNLWQELVHKYYQGVEQVRAMQRTWDQQEAYVDAARFAQVKALLQVQEREAVRWRNSCVLYFQSVAGRPIPANYEQPEHDLEYYKMLARTTYVPEPWHPASSSRVLK
MIFEKAVIVDLRTQVLDVPVQETITKDNVPVRVNAVVYFRVVDPVKAVTQVKNYIMATSQISQTTLRSVIGQAHLDELLSERDKLNMQLQRIIDEATDPWGIKVTAVEIKDVELPAGMQKAMARQAEAERERRARITLAEAERQAAEKLREAAEIISEHPMALQLRTLQTISDVAGDKSNLEHHHHHH

Soluble on expression in E. coli, not soluble:
MSKRRVVVTGMGMLSPVGNTVESSWKALLAGQSGIVNIEHFDTTNFSTRFAGLVKGFDCEQYMSKKDARKMDLFIQYGIAAGIQALEDSGLEVNEENAARIGVAIGSGIGGLELIETGHQALIEKGPRKVSPFFVPSTIVNMIAGNLSIMRGLRGPNIAISTACTTGLHNIGHAARMIAYGDADAMVAGGAEKASTPLGMAGFGAAKALSTRNDEPQKASRPWDKDRDGFVLGDGAGIMVLEEYEHAKARGAKIYAEVVGFGMSGDAYHMTSPSEDGSGGALAMEAAMRDAGVTGEQIGYVNAHGTSTPAGDVAEVKGIKRALGEAGTKQVLVSSTKSMTGHLLGAAGSVEAIITVMSLVDQMVPPTINLDNPEEGLGVDLVPHVARKVESMEYAMCNSFGFGGTNGSLIFKRM
MSLNNVIFSQKLYDTAQMIVDGCMGDADPACQTACPMHTDVKQYVRMAGEGNFQGALDLIRSKLFLPQTLGRICAHPCEASCRRNTEFGQPISVAGIKRFVAEKMDNQDHWDLNIAPLTNKHIAIVGAGPAGAQAAIELRRQGHEVTIYEKLDVYGGMMRVGIPEYRLPRDVIDFEYSYLAMLGIKTQFGVEIGKDISFDTLRSEHDAVILAHGAHVGSIIPLPGHDNDGVFSAVEYLKEISETRQFPRACKRVMVIGGGDVAMDCARSSWRIGASDVYQCSLESLESLPASQIEIDESLEEGVEFNAGWGPVAIEHENGKVTGITIKKVLSIFDEQGNFAPQYSEESKTISVDTVVFATGQIVADITDGALEQTRGGRYVVDKQTLASSLEDVFVAGDACGGNIVIEAMALGRKAAMSVERFLTARPLTEDRDFEQEYSYSSRLDVPLPKGTVDTPRLHGELRDAEERKQDFAQVDLGFTEEQIKQEASRCLQCSCKLCMTECIMMNDFSDCPKTIFSDFVNNKSMDPLLAYSCNACDQCTIVCPKDFPMKEMFLGARTDFVKANNGESPMPGHKAINMHQKLGFSKIFTMAKRAVSTKEGHHHHHH
MGSDKIHHHHHHMTDRLFTETLLAAVGEDLLRTRLSEEFIRVDLGAETVAPLLTFDALSELLSTHQLEPPRLRLHRAGAPVPLDNYTEVGEASGVQRRLVRPEALYAQLRQGASLVLDGIDRIHPPIRAAADDLMRLVHERVQVNLYLIWGDSHGFNTHWDDHDTFIVQVAGTKHWQVHGQGTRPYPMKEDIDHSHQPPEGTVWEGTVRAGEVLHVPRGWWHTVTGTGDVSMHLTFGFTRATGVDWARWLVDRLYEVEFARRDLPRFATPEERRKHQHELLRHLMDLAEQHGLDEFLTDRDSRFPRRQSFSLPWAVDGATPQPDTVVEFTPILPSALRDEGQKVALTVAGRRYTFAKAAQPLLEVLVDARVLTVAELAERAGAEVETAAALARVLVQHHLVLLRSTS
MNTNVTTNKSVQAAKNTGRVKPQKLADIILAQLEGMIIEGSLQPGEKLLPERELALQFEVSRPSLREAIQKLEAKGLVTRKQGGGTFVCNNLLSGFSDPLFELMSNNNESQFDLLEFRHGIEGMASYYAAMRGTPADFEQIQAKHNEIGNSQLEDDFRGEAEAVVEFHLAICAASHNAVILQLARSMSSLLADNIAQNLTVLAKRPDIFSKITDYRKRLLDAILSGQPQKAWGASHRHLAFIEEVLLKSTQENSRMERSMRRM
MAAISFLGDLIQTISDRGRDLIGLARSDLARTASAADLARFCEDLISRRGEASGVALARLILDRYAAFPLEDRLAFLELIATEFGADHDAVDAAIAAYRADPTRARLGLLHVAAEPRSQELIRRLNLARGGTLALVRMREDLFTLRKRLKDREAAPETIDATVSLDSDFEHLFASWFNRGFLVLRPIDWSTPADILEKIIRYEAVHEIADWDELRRRIQPTDRRCFAFFHPALLDEPLIFVEVALTNAIAPAIQPILADGREPVPARSATTAIFYSISNCQKGLAGVTFGNFLIKQVVEDLAREIPSLKTFVTLSPVPGFRTWLDRERGAGAPQGLTREDVEALRLLDTEDWRSDKTKCEAVRRAMLPAAAAYFLRAKNEKGRPLDPVARFHLGNGARLERMNFLGDTSKKGLKQSYGLMVNYLYDLSAIEKNHETYVNLGTVATSSAVSRELRSNLPPPRAVVLAEAGLEHHHHHH
MSQIEKKQLQLGYIPLLDCIALLWAKERGYFEEMGLDVTLVKEASWASLRDRLAFGILDAAHCLSAMLPAAAIGEDQIGIPLKTPLVLSKNRAYISLSQKLCYELSIQNADNAQENSAKLVKYLEQEQSIALAHVFHHSIHHYCLREWLALSHLDLAKAIQLKTLPPPYMLDALASASIDGFCVGEPWNTQGEIEGYSQIVASSRDIIPEVADKVLAVTEEWAAHHPNTVIALTAAILKAQQELETLSNLEPVWQILINFNIVRFQCSKSVHVKSYHALEQIIRHLVVGQAAPCSEDMLWLFGQMQKWHDLTIETTALNELSQRCIDQNSFEKAMQHVQSNTGLEHHHHHH
MSSAKLFTPLKVGAITATNRVFMAPLTRLRSIEPGDIPTPLMAEYYRQRASAGLIISEATQISAQAKGYAGAPGLHSDEQIAAWKKITQGVHAQGGHMAVQLWHTGRISHASLQPGGQAPVAPSAINAGTRTSLRDENGQAIRVETSTPRALDTHEIPGIVNDFRQAIANAREAGFDLVELHSAHGYLLHQFLSPSSNHRTDRYGGGVENRARLVLEVVDAGIKEWGADRIGIRLSPVGTFQNVDNGPNEEADALYLIEALGKRGIAYLHMSEPDWAGGEPYSDAFREKVRARFHGPIIGAGAYTPEKAEDLIEKGLIDAVAFGRDYIANPDLVARLQRKAELNPQRPESFYGGGAEGYTDYPTL
MGSDKIHHHHHHMKKVAIVQSNYIPWKGYFDMIAAVDEFILYDDMQYTRRDWRNRNQIKTPQGVQWLTVPVLVKGKYHQKIRETEIDGTDWAAAHWKALVQNYRRSPHFTEIAAWLEPLYLAETFTHISQLNRRFIEAICNYLGIKTVIKNSWDYTLLDGKTERLADLCVQAGGTEYISGPAAKDYVDEQVFKENGIKLTWFDYIGYPEYQQLWGEFTHGVTILDLLLNCGKNAKRYMKYVE
MAHHHHHHMDEFRPDDTTQIEEGSESNAALLQLQDALVSALTASGTLGKIRAQLRATALALIRGDDELQNAAVGPFIRPRTLTTHAKVSLLLLHDFLQHYHLQQTAGVLDVESSVHLLFNERSVLLGDLARLPGDGSLLERLVRLYEPTRQIPAVGPSGATAVTTASQTSVSIPAAKLPASPVASSSSSASQEQTVAMAQPQDADVQYELDAYEDSIPFSDTEGTIDGNVHCDEVERLTQ
MSCTTDKLIQKYDALVRKTTEHKFAKELCAGTLKDRSLYIYLSQDLQFFETSLRLICKTTSLAPTTHALITLAKKIGFFSNDENSYFHDCLELLAPSLTKEERDNFDNKAIPGVDAYINFLDELRKDASITWPSLVTSLWVAEELYWRWARDTPRAPGLHWKYQKWIDLHDGEHFQTWCEFLKAEVDKFPVEEVESIFVKVSQFEFEFFESCYNA
